Test results reported in patent US20210171647A1 (WUXI BIOLOGICS SHANGHAI, published 2021).

What was measured:
human OX40-ECD.His H153A = biological target: T1, human OX40-ECD.His H153A (human, UniProt P43489 29-214); assay: ELISA, antibody coated, OX40-ECD.His mutant supernatant; relative to silent alanine substitutions;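 note: captured OX40 mutant protein detected with HRP-labelled anti-His antibody, absorbance read-out, scaled to the mean signal of control mutants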
T1 construct: extracellular domain; not shown: C-terminal His-tag
T1 sequence (looked up): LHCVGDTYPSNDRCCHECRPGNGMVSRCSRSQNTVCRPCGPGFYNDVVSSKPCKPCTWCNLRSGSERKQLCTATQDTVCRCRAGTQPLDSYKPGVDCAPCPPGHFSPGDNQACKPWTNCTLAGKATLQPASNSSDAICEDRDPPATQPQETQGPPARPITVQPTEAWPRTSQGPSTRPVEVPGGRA

human OX40-ECD.His Q156A = biological target: T2, human OX40-ECD.His Q156A (human, UniProt P43489 29-214); assay: as above
T2 construct: extracellular domain; not shown: C-terminal His-tag
T2 sequence (looked up): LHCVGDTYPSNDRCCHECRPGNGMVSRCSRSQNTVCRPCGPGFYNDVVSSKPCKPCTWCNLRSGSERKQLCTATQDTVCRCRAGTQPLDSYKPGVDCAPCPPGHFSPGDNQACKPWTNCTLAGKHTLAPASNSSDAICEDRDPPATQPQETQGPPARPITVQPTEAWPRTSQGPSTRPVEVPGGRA

human OX40-ECD.His K79A = biological target: T3, human OX40-ECD.His K79A (human, UniProt P43489 29-214); assay: as above
T3 construct: extracellular domain; not shown: C-terminal His-tag
T3 sequence (looked up): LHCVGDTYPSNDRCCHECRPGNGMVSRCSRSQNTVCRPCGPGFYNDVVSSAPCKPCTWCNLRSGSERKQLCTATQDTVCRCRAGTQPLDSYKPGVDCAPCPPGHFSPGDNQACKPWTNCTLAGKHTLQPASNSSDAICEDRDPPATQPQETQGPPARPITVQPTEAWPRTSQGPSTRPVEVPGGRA

human OX40-ECD.His G33A = biological target: T4, human OX40-ECD.His G33A (human, UniProt P43489 29-214); assay: as above
T4 construct: extracellular domain; not shown: C-terminal His-tag
T4 sequence (looked up): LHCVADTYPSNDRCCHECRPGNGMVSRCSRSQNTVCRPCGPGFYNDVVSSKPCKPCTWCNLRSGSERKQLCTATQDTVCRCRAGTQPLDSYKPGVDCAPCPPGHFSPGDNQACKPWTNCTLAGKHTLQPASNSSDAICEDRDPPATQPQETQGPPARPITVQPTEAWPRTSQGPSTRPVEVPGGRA

human OX40-ECD.His W86A = biological target: T5, human OX40-ECD.His W86A (human, UniProt P43489 29-214); assay: as above
T5 construct: extracellular domain; not shown: C-terminal His-tag
T5 sequence (looked up): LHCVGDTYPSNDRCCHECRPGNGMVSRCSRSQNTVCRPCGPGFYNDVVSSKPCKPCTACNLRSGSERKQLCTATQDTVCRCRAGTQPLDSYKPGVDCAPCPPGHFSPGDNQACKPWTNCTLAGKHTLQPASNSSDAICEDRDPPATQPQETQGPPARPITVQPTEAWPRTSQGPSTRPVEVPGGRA

human OX40-ECD.His D163A = biological target: T6, human OX40-ECD.His D163A (human, UniProt P43489 29-214); assay: as above
T6 construct: extracellular domain; not shown: C-terminal His-tag
T6 sequence (looked up): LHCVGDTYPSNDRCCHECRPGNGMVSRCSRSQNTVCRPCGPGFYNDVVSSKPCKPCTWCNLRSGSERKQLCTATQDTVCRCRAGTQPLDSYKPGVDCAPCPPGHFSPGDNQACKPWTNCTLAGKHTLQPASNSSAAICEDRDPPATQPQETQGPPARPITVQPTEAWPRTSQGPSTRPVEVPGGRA

human OX40-ECD.His D74A = biological target: T7, human OX40-ECD.His D74A (human, UniProt P43489 29-214); assay: as above
T7 construct: extracellular domain; not shown: C-terminal His-tag
T7 sequence (looked up): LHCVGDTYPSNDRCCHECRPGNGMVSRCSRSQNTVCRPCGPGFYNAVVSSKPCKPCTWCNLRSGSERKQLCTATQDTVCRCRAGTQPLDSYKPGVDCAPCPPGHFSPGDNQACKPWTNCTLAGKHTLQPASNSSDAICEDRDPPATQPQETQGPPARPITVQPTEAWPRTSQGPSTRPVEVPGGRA

human OX40-ECD.His R65A = biological target: T8, human OX40-ECD.His R65A (human, UniProt P43489 29-214); assay: as above
T8 construct: extracellular domain; not shown: C-terminal His-tag
T8 sequence (looked up): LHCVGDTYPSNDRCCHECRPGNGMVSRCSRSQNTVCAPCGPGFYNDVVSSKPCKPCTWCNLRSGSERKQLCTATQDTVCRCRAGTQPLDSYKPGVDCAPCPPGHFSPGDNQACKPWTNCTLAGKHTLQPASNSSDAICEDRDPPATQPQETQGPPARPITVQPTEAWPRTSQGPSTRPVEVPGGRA

human OX40-ECD.His T100A = biological target: T9, human OX40-ECD.His T100A (human, UniProt P43489 29-214); assay: as above
T9 construct: extracellular domain; not shown: C-terminal His-tag
T9 sequence (looked up): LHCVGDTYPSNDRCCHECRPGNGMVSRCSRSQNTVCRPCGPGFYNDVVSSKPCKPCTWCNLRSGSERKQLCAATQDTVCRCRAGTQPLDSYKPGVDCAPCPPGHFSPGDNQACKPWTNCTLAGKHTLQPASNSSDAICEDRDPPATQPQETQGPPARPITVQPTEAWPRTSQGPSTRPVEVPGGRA

[1] = biological target: T10, human OX40, full-length, on cells (human, UniProt P43489 29-277); assay: flow cytometry on activated human CD4+ T cells
T10 construct: whole, on cells; also called hPro1; cell surface human OX40
T10 sequence (looked up): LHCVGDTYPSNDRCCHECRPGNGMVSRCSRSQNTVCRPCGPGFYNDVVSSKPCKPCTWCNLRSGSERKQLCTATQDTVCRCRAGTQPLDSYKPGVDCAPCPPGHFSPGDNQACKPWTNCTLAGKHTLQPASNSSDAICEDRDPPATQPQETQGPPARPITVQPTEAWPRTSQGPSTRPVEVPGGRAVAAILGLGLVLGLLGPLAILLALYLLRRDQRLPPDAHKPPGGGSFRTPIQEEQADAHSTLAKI
Description: Briefly, human OX40-expressing CHO-K1 cells or activated human CD4⁺ T cells were transferred into 96-well U-bottom plates (Corning) at a density of 1×10⁵ cells/well. Testing antibodies were serially diluted in wash buffer (1×PBS/1% BSA) and incubated with cells at 4° C. for 1 h. After washing with 1×PBS/1% BSA, the secondary antibody goat anti-human IgG Fc-PE (Jackson ImmunoResearch Lab) was applied and incubated with cells at 4° C. in the dark for 1 h. The cells were then washed and resuspended in 1×PBS/1% BSA or fixed with 4% paraformaldehyde, and then analyzed by flow cytometry (BD).

- Fold Change (human OX40-ECD.His H153A): 0.997
- Fold Change (human OX40-ECD.His Q156A): 0.97
- Fold Change (human OX40-ECD.His K79A): 0.992
- Fold Change (human OX40-ECD.His G33A): 1
- Fold Change (human OX40-ECD.His W86A): 0.842
- Fold Change (human OX40-ECD.His D163A): 0.318
- Fold Change (human OX40-ECD.His D74A): 0.796
- Fold Change (human OX40-ECD.His R65A): 0.996
- Fold Change (human OX40-ECD.His T100A): 0.557
- EC50 (read off the curve) [1]: 1 to 2 nM
B1: 1.134.9-u1-IgG1L (antibody, V domains shown)
VH: QVQLQESGPGLVKPSGTLSLTCAVSGGSISSYNWWSWVRQPPGKGLEWIGEIYHGGNTNYNPSLKSRVTMSVDNSKNQFSLKLSSVTAADTAVYYCARAPGDWGGSPYFDFWGQGTLVTVSS
VL: SSELTQDPAVSVALGQTVRITCQGDNLRTYYASWYQQKPGQAPILLIYGRNKRPSGIPDRFSGSSSGNTASLTITGAQAEDEAAYYCNSRDSSGNPVVFGGGTKLTVL
notes: fully human IgG1, lambda
